Experimental data taken from patent EP3574020B1.

Target: commercially-prepared stable A-beta42 Oligomers (SynAging) (human)
Test: SPR; antibody covalently immobilized, stable A-beta42 oligomers at 1 microM

Sequence of commercially-prepared stable A-beta42 Oligomers (SynAging) (human) (peptide, as listed by the source): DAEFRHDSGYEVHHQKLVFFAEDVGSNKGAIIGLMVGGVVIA

negative control IgG1 (antibody) gave a binding response units (BRU), mean of 2.5 BRU.
